Results as given in the Human Domainome abundance scans (Beltran et al. 2025).
± gives the uncertainty stated by the source.

B1: Ankyrin-1, residues 1405 to 1484; numbered along this chain, P16157 (parent)
chain: MKMAVISEHLGLSWAELARELQFSVEDINRIRVENPNSLLEQSVALLNLWVIREGQNANMENLYTALQSIDRGEIVNMLE

Variants of: B1
Test: abundance fitness (aPCA) (normalised: wild type 0, dead -1); higher = more abundant; growth selection in yeast, the domain comes from the species named
Conditions: Homo sapiens
MKMAVISEHLGLSWAELARELQFSVEDINRIRVENPESLLEQSVALLNLWVIREGQNANMENLYTALQSIDRGEIVNMLE [N37E] showed an abundance fitness of -0.005 ± 0.082.
Work on MKMAVISEHLGLSWAELARELQFSVEDINRIRVENPYSLLEQSVALLNLWVIREGQNANMENLYTALQSIDRGEIVNMLE [N37Y] yielded an abundance fitness of -0.322 ± 0.2.
Variant MKMAVISEHLGLSWAELARELQFSVEDINRIRVENPNSLLEQSVALLNLWVIREGQNANMENLYTALQSIDRGEIVNMLD [E80D] has an abundance fitness of 0.164 ± 0.071.
In the case of MKMAVISEHLGDSWAELARELQFSVEDINRIRVENPNSLLEQSVALLNLWVIREGQNANMENLYTALQSIDRGEIVNMLE [L12D], the abundance fitness is reported as -0.124 ± 0.16.
Variant MKMAVISEHLGLSWAELARELQFSVEDINRIRVENPNSLLEQSVALLNLWVIREGQNANMENLYKALQSIDRGEIVNMLE [T65K] has an abundance fitness of -0.055 ± 0.12.
MKMAVISEHLGLSWAELARELQFSVEDINRIRVENPNSLLEQSVALLNLWVIREGQNANMENLYLALQSIDRGEIVNMLE [T65L] showed an abundance fitness of -0.072 ± 0.049.
Variant MKMAVISEHLGLSWAELARELQFSVEDINRIRVENPNSLLEQSVALLNLWVIREGQNANMENLYIALQSIDRGEIVNMLE [T65I] has an abundance fitness of -0.209 ± 0.14.
For MKMAVISEHLGLSWAELARELQFSVEDINRIRVENPNSLLEQSVALLNLWVIREGQNANMENLYPALQSIDRGEIVNMLE [T65P], the abundance fitness was 0.095 ± 0.065.
In the case of MKMAVISEHLGLSWAELARELQFSVEDINRIRVENPNSLLEQSVALLNLWVIREGQNANMENLYVALQSIDRGEIVNMLE [T65V], the abundance fitness is reported as -0.153 ± 0.053.
MKMAVISEHLGLSWAELARELQFSVEDINRIRVENPNSLLEQSVALLNLKVIREGQNANMENLYTALQSIDRGEIVNMLE [W50K] gave an abundance fitness of -0.655 ± 0.18.
Variant MKMAVISEHLGLSWAELARELQFSAEDINRIRVENPNSLLEQSVALLNLWVIREGQNANMENLYTALQSIDRGEIVNMLE [V25A] has an abundance fitness of 0.028 ± 0.05.
MKMAVISEHLGLSWAMLARELQFSVEDINRIRVENPNSLLEQSVALLNLWVIREGQNANMENLYTALQSIDRGEIVNMLE [E16M] showed an abundance fitness of -0.207 ± 0.1.
With MKMAVISEHLGLSWQELARELQFSVEDINRIRVENPNSLLEQSVALLNLWVIREGQNANMENLYTALQSIDRGEIVNMLE [A15Q] the abundance fitness was -0.171 ± 0.13.
Variant MKMAVISEHLGLSWIELARELQFSVEDINRIRVENPNSLLEQSVALLNLWVIREGQNANMENLYTALQSIDRGEIVNMLE [A15I] has an abundance fitness of 0.132 ± 0.072.
In the case of MKMAVISEHLGLSWAELARELQFSVEDINRIRVDNPNSLLEQSVALLNLWVIREGQNANMENLYTALQSIDRGEIVNMLE [E34D], the abundance fitness is reported as -0.186 ± 0.33.
With MKMAVISEHLGLSWAELARELQFSVEDINRIRVENPNSLLEQSVALLNLWVIREGQNANMENLYTALQSIDRGETVNMLE [I75T] the abundance fitness was -0.342 ± 0.13.
In the case of MKMAVISEHLGLSWAELARELQFSVEDINRIRVENPNSLLEQSVALLNLWVIREGQNANMENLYTALQSIDRGEVVNMLE [I75V], the abundance fitness is reported as -0.098 ± 0.073.
Variant MKMAVISEHLGLSWAELARELQFSVEDINRIRVENPNSLLEQSVALLNLWVIREGQNANMENLYTNLQSIDRGEIVNMLE [A66N] has an abundance fitness of -0.562 ± 0.19.
With MKMAVISEHLGLSWAELARELQFSVEDINRIRVENPNSHLEQSVALLNLWVIREGQNANMENLYTALQSIDRGEIVNMLE [L39H] the abundance fitness was -0.42 ± 0.26.
Variant MKMAVISEHLGLSWAELARELQFSVEDINRIRVENPNSRLEQSVALLNLWVIREGQNANMENLYTALQSIDRGEIVNMLE [L39R] has an abundance fitness of -0.554 ± 0.074.
Work on MKMAVISEHLGLSWAELARELQFSVEDINRIRVENPNSLLEQCVALLNLWVIREGQNANMENLYTALQSIDRGEIVNMLE [S43C] yielded an abundance fitness of -0.552 ± 0.11.
Work on MKMAVISEHLGLSWAELARELQFSVEDINRIRVENPNSLLEQSVALLNLWVIREGQNANMENLYTALQSIDRGIIVNMLE [E74I] yielded an abundance fitness of -0.105 ± 0.19.
For MKMAVISEHLGLSWAELARELEFSVEDINRIRVENPNSLLEQSVALLNLWVIREGQNANMENLYTALQSIDRGEIVNMLE [Q22E], the abundance fitness was -0.043 ± 0.071.
Work on MKMAVISEHLGLSWAELARELCFSVEDINRIRVENPNSLLEQSVALLNLWVIREGQNANMENLYTALQSIDRGEIVNMLE [Q22C] yielded an abundance fitness of 0.016 ± 0.078.
In the case of MKMAVISEHLGLSWAELARELQFSVEDINRIRVENPNSLLEQSVALLNLWAIREGQNANMENLYTALQSIDRGEIVNMLE [V51A], the abundance fitness is reported as -0.072 ± 0.079.
Work on MKMAVISEHLGLSWAELARRLQFSVEDINRIRVENPNSLLEQSVALLNLWVIREGQNANMENLYTALQSIDRGEIVNMLE [E20R] yielded an abundance fitness of -0.127 ± 0.053.
Work on MKMAVISEHLGLSWAELARELQFEVEDINRIRVENPNSLLEQSVALLNLWVIREGQNANMENLYTALQSIDRGEIVNMLE [S24E] yielded an abundance fitness of -0.067 ± 0.069.
In the case of MKMAVISEHLGLSWAELARELQFSVEDINRIRVENPNSLLEQSVALLNLWVIEEGQNANMENLYTALQSIDRGEIVNMLE [R53E], the abundance fitness is reported as -0.512 ± 0.1.
With MKMAVISEHLGLSWAELAHELQFSVEDINRIRVENPNSLLEQSVALLNLWVIREGQNANMENLYTALQSIDRGEIVNMLE [R19H] the abundance fitness was 0.064 ± 0.18.
For MKMAVISEHLGLSWAELATELQFSVEDINRIRVENPNSLLEQSVALLNLWVIREGQNANMENLYTALQSIDRGEIVNMLE [R19T], the abundance fitness was -0.092 ± 0.046.
With MKMAVISEHLGLSWAELARELQFSVEDINRIRVENPNSLSEQSVALLNLWVIREGQNANMENLYTALQSIDRGEIVNMLE [L40S] the abundance fitness was -0.16 ± 0.059.
Work on MKMTVISEHLGLSWAELARELQFSVEDINRIRVENPNSLLEQSVALLNLWVIREGQNANMENLYTALQSIDRGEIVNMLE [A4T] yielded an abundance fitness of -0.029 ± 0.088.
Work on MKMWVISEHLGLSWAELARELQFSVEDINRIRVENPNSLLEQSVALLNLWVIREGQNANMENLYTALQSIDRGEIVNMLE [A4W] yielded an abundance fitness of -0.397 ± 0.15.
In the case of MKMRVISEHLGLSWAELARELQFSVEDINRIRVENPNSLLEQSVALLNLWVIREGQNANMENLYTALQSIDRGEIVNMLE [A4R], the abundance fitness is reported as -0.071 ± 0.076.
With MKMEVISEHLGLSWAELARELQFSVEDINRIRVENPNSLLEQSVALLNLWVIREGQNANMENLYTALQSIDRGEIVNMLE [A4E] the abundance fitness was -0.142 ± 0.18.
